Experimental findings from PMC3232451 (Nature structural & molecular biology, 2011) are described below.

Data set [1] addresses TBL1 F26A (human). Nature of the data set: SEC.
Data set [2] has as its target TBL1 F26A (human). Put plainly: NMR HSQC spectra.
Data set [3] addresses TBL1 wild type (gel filtration and HSQC; limits not stated) (human). Nature of the data set: SEC.
The target is the same in data set [4]. Nature of the data set: NMR HSQC spectra.
Data set [5] deals with the molecule itself. Put plainly: crystal structure.
The target of data set [6] is T1, His6-TBL1(1-90) (human, UniProt O60907-2 1-90).
T1 sequence (looked up): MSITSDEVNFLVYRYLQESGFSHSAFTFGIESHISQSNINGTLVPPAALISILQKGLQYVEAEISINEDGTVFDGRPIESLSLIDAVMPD
Put plainly: fluorescence polarisation.

The target in data set [7] is T2, SMRT(167-207), GST removed (human, UniProt Q9Y618 167-207).
T2 chain (looked up): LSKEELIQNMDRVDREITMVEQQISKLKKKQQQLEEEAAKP
Put plainly: NMR structure.

Where no end group is shown, it is not given here.

For the molecule TBL1 F26A (domain or fragment), the stoichiometry N in data set [1] and in data set [2] was 2 each time.

For “TBL1 wild type (gel filtration and HSQC; limits not stated) (domain or fragment)”, the stoichiometry N in data set [3] and in data set [4] was 4 in each case.

B1: His6-TBL1(1-71) (domain or fragment, human, UniProt O60907-2 1-71, looked up)
chain: MSITSDEVNFLVYRYLQESGFSHSAFTFGIESHISQSNINGTLVPPAALISILQKGLQYVEAEISINEDGT
Regarding B1, the “stoichiometry N” value in data set [5] came out at 4.

B2: BODIPY labeled GPS2(1-52) (peptide, UniProt Q13227 1-52, looked up)
chain: MPALLERPKLSNAMARALHRHIMMERERKRQEEEEVDKMMEQKMKEEQERRK
modifications: also: BODIPY label, position not given here
Take B2: in data set [6], the Kd stood at 5.1 µM. That is a single-digit micromolar value.

B3: BODIPY labeled SMRT(227-260) (peptide, UniProt Q9Y618 227-260, looked up)
chain: VQIIYDENRKKAEAAHRILEGLGPQVELPLYNQP
modifications: also: BODIPY label, position not given here
As for B3, binding in data set [6] was characterised by a dissociation constant (Kd) of 14.7 µM.

B4: GPS2(53-90) (domain or fragment, human, UniProt Q13227 53-90, looked up)
chain: KKEMEERMSLEETKEQILKLEEKLLALQEEKHQLFLQL
B4: in data set [7], the binding result is recorded as “binds”.
